The results in this text go back to PMC4164936, “The translation elongation factor eEF1A1 couples transcription to translation during heat shock response”.

As a reminder, the Kd is the constant that tells how readily two partners part at equilibrium. Low readings indicate a tighter complex, high ones a looser complex.

In data set [1] the target is T1, eEF1A1 (Homo sapiens (HeLa S-100)) (UniProt P68104).
T1 sequence: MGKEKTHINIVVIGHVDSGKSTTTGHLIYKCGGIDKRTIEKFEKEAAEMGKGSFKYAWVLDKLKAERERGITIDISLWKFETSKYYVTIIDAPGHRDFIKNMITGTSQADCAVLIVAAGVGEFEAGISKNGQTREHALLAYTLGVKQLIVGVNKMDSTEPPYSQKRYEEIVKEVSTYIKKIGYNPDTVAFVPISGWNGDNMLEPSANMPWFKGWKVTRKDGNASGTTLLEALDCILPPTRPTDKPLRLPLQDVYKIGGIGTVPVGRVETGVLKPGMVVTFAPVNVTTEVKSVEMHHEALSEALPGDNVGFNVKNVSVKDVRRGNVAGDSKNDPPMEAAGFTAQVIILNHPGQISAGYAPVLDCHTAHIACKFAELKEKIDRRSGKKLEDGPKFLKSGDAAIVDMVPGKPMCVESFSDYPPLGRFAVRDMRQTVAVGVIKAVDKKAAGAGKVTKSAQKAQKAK
Description: EMSA. Conditions: RNA EMSA: purified eEF1A1 with 20 kcpm RNA (~0.1 pmol/ul), 50 uM GTP, 30 min, room temperature; protein stock in 50 mM Tris-HCl pH 7.5, 100 mM KCl, 0.5 mM …. (In general: Mobility shift assays separate free from complexed probe on a gel.)

For the next data set, the target named is eEF1A1 (Homo sapiens (HeLa S-100), UniProt P68104 1-462). Description: EMSA; relatively weak; reviewer notes no saturation, >300 nM; RNA EMSA: purified eEF1A1 with 20 kcpm RNA (~0.1 pmol/ul), 50 uM GTP, 30 min, room temperature; protein stock in 50 mM Tris-HCl pH 7.5, 100 mM KCl, 0.5 mM EDTA, 2 mM DTT, 10% glycerol; binding buffer per cited protocols (Yan 2008, Shamovsky 2006). Conditions: protein: native; tags: none; (radiolabeled); blunt.

Turning to “GGGGGGCCUUUCCAAGAUUGCUGUUUUUGUUUUGGAGCUUCAAGACUUUGCAUUUCCUAGUAUUUCUGUUUGUCAGUUCUCAAUUUCCUGUGUUUGCAAUGUUGAAAUUUUUUGGUGAAGUACUGAACUUGCUUUUUUUCCGGUUUCUACAUGCAGAGAUGAAUUUAUACUGCCAUCUUACGACUAUUUCUUCUUUUUAAUACACUUAACUCAGGCCAUUUUUUAAGUUGGUUACUUCAAAGUAAAUAAACUUUAAAAUUCAA [HSP70 3'UTR]”, in data set [1], the Kd came to 100 nM and the binding entry is listed as “binds”.
HSP70 3'UTR: the Kd in data set [1] turned out to be 100 nM.

B1: HSPA1A -141/-91 promoter (dsDNA)
DNA 1: GGAAGGCTGGGGGGCAGGACGGGAGGCGAAAACCCTGGAATATTCCCGACC
DNA 2: GGTCGGGAATATTCCAGGGTTTTCGCCTCCCGTCCTGCCCCCCAGCCTTCC
In the case of B1, the binding result in the data set with eEF1A1 is listed as “binds”.
